Entries after “also recorded” stand apart in the source; their conditions may differ. Marks after values point to notes of the source that are not given here.
Key:
[1] = test system: A/H1N1/California/07/2009; assay: Anti-influenza IgG and IgM levels in serum; type: in vivo, human; settings: vs placebo cohorts
Description: The trial was observer-blind because the placebo in the RAD001 0.5 mg daily and 20 mg weekly cohorts differed slightly from the RAD001 tablets in those cohorts. […] The treatment duration for all cohorts was 6 weeks during which time subjects underwent safety evaluations in the clinic every 2 weeks. After subjects had been dosed for 4 weeks, RAD001 steady state levels were measured pre-dose and at one hour post dose. […] Antibody titers to the 3 influenza vaccine strains as well as to 2 heterologous strains (A/H1N1 strain A/New Jersey/8/76 and A/H3N2 strain A/Victoria/361/11) were measured by standard hemagglutination inhibition assay (Kendal, A P et al. (1982) Concepts and procedures for laboratory-based influenza surveillance. Atlanta: Centers for Disease Control and Prevention B17-B35). Levels of IgG and IgM specific for the A/H1N1/California/07/2009 were measured in serum samples taken before and 4 weeks after influenza vaccination as described previously (Spensieri, F. et al. (2013) Proc. Natl. Acad. Sci. USA 110:14330-14335). Results were expressed as fluorescence intensity.

[2] = test system: A/H3N2 strain A/Victoria/361/11; assay: HI titers and seroconversion, heterologous strain; type: in vivo, human; settings: for Percentage of subjects who seroconvert to heterologous strain A/H3N2 A/Victoria/361/11: 4 weeks after seasonal influenza vaccination, odds ratio vs placebo p < 0.05
[3] = test system: Ovcar3; assay: Luciferase-based killing assay; type: cell-based, human; settings: for killing of target tumor cells: E:T 10:1 to 1:1, 20 hours, FIG. 16A; for specific killing within the panel of human meso CARs: FIGS. 17A and 17B
Description: The ability for the CART-MSLN to target and kill tumor cells was also assessed in vitro. A luciferase-based assay was used, with tumor cell lines expressing luciferase reporters. Target cells (tumor cells) were plated at 20,000 targets/well. CART-MSLN were added at varying effector:target ratios, from 10:1, 5:1, 2.5:1, and 1:1. The cells were cultured for 20 hours, and the luminescence of each well was detected to determine the percentage of target cells killed. Luciferase-expressing Ovcar3 (ovarian cancer) and U87 mg (glioblastoma) cell lines were used as target cells.

[4] = test system: Ovcar8; assay: OVCAR8 subcutaneous xenograft, single and double dose (Example 17); type: in vivo, NSG mice; settings: for tumor growth / anti-tumor activity, single dose: 4×10^6 CAR+ T cells on day 14; for tumor growth / anti-tumor activity, double dose: 4×10^6 CAR+ T cells on days 14 and 19; for delta T/C value: day 52, versus Isotype group, single dose; for regression value / Regression (%) / Delta T/C (%): day 52; for Regression (%): double dose (second identical dose 5 days later); for Delta T/C (%): single dose of 4×10^6 CAR T cells i.v. on day 14, versus the Isotype group
Description: Cell line: OVCAR8 is a human ovarian cancer cell line that was derived from a patient with ovarian adenocarcinoma, and has been transduced to express mCherry. Cells were grown in RMPI medium containing 10% fetal bovine serum. This cell line grows adherent in tissue culture flasks. This cell line forms tumors in mice when implanted subcutaneously in the flank and mixed with matrigel. The addition of matrigel to the cells during the implantation allow for a matrix to develop in the flank of the mouse that provides a structure for the tumor cells to start growing on. Over 10-12 days, the matrigel plug degrades and the solid tumor that remains is made up of tumor cells and surrounding stromal cells. The OVCAR8 cells have been modified to express mCherry, so that that tumor cell growth can also be monitored by imaging the mice.
Mice: 6 week old NSG (NOD.Cg-Prkdc^scidIl2rg^tm1Wjl/SzJ) mice were received from the Jackson Laboratory (stock number 005557). Animals were allowed to acclimate in the Novartis NIBRI animal facility for at least 3 days prior to experimentation. Animals were handled in accordance with Novartis ACUC regulations and guidelines. Electronic transponders for animal identification were implanted on the left flank one day prior to tumor implantation. Mice were shaved on the right flank prior to tumor implantation.
Tumor implantation: OVCAR8 cells in log phase were harvested after tyrpsinization with 0.25% trypsin-EDTA. The cells were washed in 50 ml falcon tubes at 1200 rpm for 5 minutes, once in growth media and then two times in cold sterile PBS. The cells were resuspended in PBS at a concentration of 100×10^6 per ml and kept on ice. The PBS solution containing the cells was then mixed 1:1 with matrigel, resulting in a final concentration of 50×10^6 cells per ml of PBS-matrigel. The cells were placed on ice and immediately implanted in mice. Tumors were implanted subcutaneously in 200 ul on the right flank.
The OVCAR8 model endogenously expresses mesothelin and thus, can be used to test the in vivo efficacy of mesothelin directed CAR T cells. This model grows well when implanted subcutaneously in the flank of mice and can be calipered for tumor volume measurements. Upon implantation of 10×10^6 tumor cells in a 50:50 mix of PBS and matrigel, the tumors establish and can be accurately measured in one week. Within 13-15 days, the mean tumor volume is 100-200 mm^3, with tumors reaching an endpoint volume (1000-1200 mm^3) by 60-65 days. Anti-tumor activities of therapeutic agents are often tested once tumors are fully engrafted and matrigel resorbed. Thus, there is a large window with this model during which the anti-tumor activity of the CAR T cells can be observed.
CAR T cell dosing: Mice were dosed with 4×10^6 CART cells (13.3×10^6 total T cells) 14 days after tumor implantation. Cells were partially thawed in a 37 degree Celsius water bath and then completely thawed by the addition of 1 ml of cold sterile PBS to the tube containing the cells. The thawed cells were transferred to a 15 ml falcon tube and adjusted to a final volume of 10 mls with PBS. The cells were washed twice at 1000 rpm for 10 minutes each time and then counted on a hemocytometer. T cells were then resuspended at a concentration of 133×10^6 cells per ml of cold PBS and kept on ice until the mice were dosed. The mice were injected intravenously via the tail vein with 100 ul of the T cells for a dose of 4×10^6 CAR T cells (13.3×10^6 total T cells) per mouse. Seven mice per group were either treated with 100 ul of PBS alone (PBS) or T cells transduced with an isotype CAR (Isotype). 14 mice per group were treated with either the SS1 mesothelin CAR T cells, M5 mesothelin CAR T cells, or M11 mesothelin CART cells. Five days later the SS1, M5, and M11 groups were split in half and seven mice in each group were treated with an identical second dose of the CAR T cells. […]

For `CO[C@H]1C[C@@H]2CC[C@@H](C)[C@@](O)(O2)C(=O)C(=O)N2CCCC[C@H]2C(=O)O[C@H]([C@H](C)C[C@@H]2CC[C@@H](OCCO)[C@H](OC)C2)CC(=O)[C@H](C)/C=C(\C)[C@@H](O)[C@@H](OC)C(=O)[C@H](C)C[C@H](C)/C=C/C=C/C=C/1C` [RAD001, (1R,9S,12S,15R,16E,18R,19R,21R,23 S,24E,26E,28E,30S,32S,35R)-1,18-dihydroxy-12-{(1R)-2-[(1 S,3R,4R)-4-(2-hydroxyethoxy)-3-methoxycyclohexyl]-1-methylethyl}-19,30-dimethoxy-15,17,21,23,29,35-hexamethyl-11,36-dioxa-4-aza-tricyclo[30.3.1.04,9]hexatriaconta-16,24,26,28-tetraene-2,3,10,14,20-pentaone], the “post-vaccination anti-influenza IgM and IgG levels” value [1] was “No significant difference; also recorded: did not differ”, the “increase in seroconversion rate, H3N2 heterologous strain” value ([2]; 5 and 20 mg weekly dosing cohorts) was “statistically significant” and the “Percentage of subjects who seroconvert to heterologous strain A/H3N2 A/Victoria/361/11” value ([2]; RAD001 5 mg weekly) was 39%*. The “Percentage of subjects who seroconvert to heterologous strain A/H3N2 A/Victoria/361/11” value ([2]; RAD001 20 mg weekly) was 40% * and the “H3N2 seroconversion rate, heterologous strain” value ([2]; pooled RAD001 cohorts, p=0.007 vs placebo) was 39%.

B1: M5: human anti-mesothelin scFv SEQ ID NO: 43; full CAR SEQ ID NO: 67 (protein)
scFv: QVQLVQSGAEVEKPGASVKVSCKASGYTFTDYYMHWVRQAPGQGLEWMGWINPNSGGTNYAQKFQGRVTMTRDTSISTAYMELSRLRSDDTAVYYCASGWDFDYWGQGTLVTVSSGGGGSGGGGSGGGGSGGGGSDIVMTQSPSSLSASVGDRVTITCRASQSIRYYLSWYQQKPGKAPKLLIYTASILQNGVPSRFSGSGSGTDFTLTISSLQPEDFATYYCLQTYTTPDFGPGTKVEIK
In the case of B1, the “killing of target tumor cells” value [3] is reported as “performed similarly well in killing target tumor cells”, the “specific killing within the panel of human meso CARs” value [3] is reported as “highest specific killing of Ovcar3 cells” and the “tumor growth / anti-tumor activity, single dose” value [4] is reported as “clear anti-tumor activity”. For the same molecule, the “tumor growth / anti-tumor activity, double dose” value [4] was “regression as opposed to tumor growth inhibition”, the “delta T/C value” [4] was 30.28% and the regression value ([4]; double dose) was −63.90%. The “mice with complete regression” value ([4]; double dose) was “four out of seven mice”, the “Regression (%)” value [4] was −63.90% and the “Delta T/C (%)” value [4] was 30.28%.

B2: M11: human anti-mesothelin scFv SEQ ID NO: 49; full CAR SEQ ID NO: 73 (protein)
scFv: QVQLQQSGAEVKKPGASVKVSCKASGYTFTGYYMHWVRQAPGQGLEWMGWINPNSGGTNYAQNFQGRVTMTRDTSISTAYMELRRLRSDDTAVYYCASGWDFDYWGQGTLVTVSSGGGGSGGGGSGGGGSGGGGSDIRMTQSPSSLSASVGDRVTITCRASQSIRYYLSWYQQKPGKAPKLLIYTASILQNGVPSRFSGSGSGTDFTLTISSLQPEDFATYYCLQTYTTPDFGPGTKVEIK
For B2, the “killing of target tumor cells” value [3] was “performed similarly well in killing target tumor cells”, the “specific killing within the panel of human meso CARs” value [3] was “highest specific killing of Ovcar3 cells” and the “tumor growth / anti-tumor activity, single dose” value [4] was “clear anti-tumor activity”. The “tumor growth / anti-tumor activity, double dose” value [4] was “regression as opposed to tumor growth inhibition”, the “delta T/C value” [4] was 52.91% and the regression value ([4]; double dose) was −15.80%. The “Regression (%)” value [4] was −15.80% and the “Delta T/C (%)” value [4] was 52.91%.
